In the supplement of paper PMC10567573 one finds protein stability index data, which are given here for 94 variants.

B1: STX11 (parent)
chain: FQRAMHDYNQAEMKQRDNCKIRIQ
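Further: lentivirally expressed fusions sorted by FACS into six bins by GFP to DsRed ratio, PSI derived from sequencing read proportions per bin multiplied by bin number.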

The variants in this series derive from B1. Kind of series: protein stability index of a GFP-peptide fusion (GPS, HEK-293T) (PSI 1-6); higher = more stable. The following applies: c terminus: a fixed tail appended.
With FQRAMHDYNQAEMKQRDLCKIRIQ, the protein stability index worked out at 2.48.
As to FQRAMHDYNQAEMKQRDWCKIRIQ, the protein stability index came out at 2.17.
For the variant FQRAMHDYNQAEMKQRDRCKIRIQ, the protein stability index was 2.44.
As for FQRAMHDYNQAEMKQRDSCKIRIQ, the protein stability index was 2.48.
With FQRAMHDYNQAEMKQRDECKIRIQ, the protein stability index amounted to 3.11.
In the case of FQRAMHDYNQAEMKQRDGCKIRIQ, the protein stability index came out at 2.41.
On to FQRAMHDYNQAEMKQRDTCKIRIQ, for which the protein stability index stood at 3.21.
With FQRAMHDYNQAEMKQRDKCKIRIQ the figure was 2.56; with FQRAMHDYNQAEMKQRDDCKIRIQ, 2.88.
Turning to FQRAMHDYNQAEMKQRDACKIRIQ, the protein stability index is 2.53.
Regarding FQRAMHDYNQAEMKQRDQCKIRIQ, the protein stability index was found to be 2.5.
As to FQRAMHDYNQAEMKQRDICKIRIQ, the protein stability index was found to be 2.41.
With FQRAMHDYNQAEMKQRDPCKIRIQ the figure was 2.91.
With FQRAMHDYNQAEMKQRDMCKIRIQ the figure was 2.59.
Consider FQRAMHDYNQAEMKQRDVCKIRIQ, for which the protein stability index was 2.17.
For the variant FQRAMHDYNQAEMKQRDHCKIRIQ, the protein stability index turned out to be 2.02.
With FQRAMHDYNQAEMKQRDFCKIRIQ the figure was 2.36; with FQRAMHDYNQAEMKQRDYCKIRIQ, 2.17; with FQRAMHDYNQAEMKQRDCCKIRIQ, 2.3.
In the case of FQRAMHDYNQAEMKQRDNCEIRIQ, the protein stability index worked out at 2.74.
For the variant FQRAMHDYNQAEMKQRDNCYIRIQ, the protein stability index was found to be 1.41.
Consider FQRAMHDYNQAEMKQRDNCIIRIQ, for which the protein stability index worked out at 1.3.
With FQRAMHDYNQAEMKQRDNCTIRIQ the figure was 2.47.
Take FQRAMHDYNQAEMKQRDNCCIRIQ: the protein stability index was 2.23.
Turning to FQRAMHDYNQAEMKQRDNCPIRIQ, the protein stability index was determined as 2.37.
Turning to FQRAMHDYNQAEMKQRDNCQIRIQ, the protein stability index was determined as 2.75.
As for FQRAMHDYNQAEMKQRDNCAIRIQ, the protein stability index came to 2.32.
On to FQRAMHDYNQAEMKQRDNCSIRIQ, for which the protein stability index is 3.15.
On to FQRAMHDYNQAEMKQRDNCNIRIQ, for which the protein stability index turned out to be 2.83.
On to FQRAMHDYNQAEMKQRDNCFIRIQ, for which the protein stability index turned out to be 1.69.
As to FQRAMHDYNQAEMKQRDNCRIRIQ, the protein stability index came out at 2.37.
Turning to FQRAMHDYNQAEMKQRDNCMIRIQ, the protein stability index was determined as 2.46.
FQRAMHDYNQAEMKQRDNCDIRIQ: the protein stability index was determined as 3.11.
For FQRAMHDYNQAEMKQRDNCVIRIQ, the protein stability index came to 2.14.
Take FQRAMHDYNQAEMKQRDNCHIRIQ: the protein stability index stood at 3.21.
Regarding FQRAMHDYNQAEMKQRDNCGIRIQ, the protein stability index stood at 2.35.
For the variant FQRAMHDYNQAEMKQRDNCLIRIQ, the protein stability index is 3.26.
On to FQRAMHDYNQAEMKQRDNCWIRIQ, for which the protein stability index came to 1.6.
On to FQRAMHDYNQAEMKQRDNYKIRIQ, for which the protein stability index stood at 2.61.
In the case of FQRAMHDYNQAEMKQRDNTKIRIQ, the protein stability index came to 3.04.
FQRAMHDYNQAEMKQRDNKKIRIQ: the protein stability index was determined as 3.38.
With FQRAMHDYNQAEMKQRDNIKIRIQ, the protein stability index was determined as 2.55.
As for FQRAMHDYNQAEMKQRDNGKIRIQ, the protein stability index was 3.06.
On to FQRAMHDYNQAEMKQRDNNKIRIQ, for which the protein stability index came to 3.7.
Take FQRAMHDYNQAEMKQRDNHKIRIQ: the protein stability index amounted to 4.44.
As to FQRAMHDYNQAEMKQRDNSKIRIQ, the protein stability index stood at 3.27.
With FQRAMHDYNQAEMKQRDNRKIRIQ the figure was 2.59; with FQRAMHDYNQAEMKQRDNQKIRIQ, 2.77; with FQRAMHDYNQAEMKQRDNWKIRIQ, 2.35.
Take FQRAMHDYNQAEMKQRDNAKIRIQ: the protein stability index is 2.98.
As for FQRAMHDYNQAEMKQRDNDKIRIQ, the protein stability index was found to be 2.85.
With FQRAMHDYNQAEMKQRDNMKIRIQ the figure was 2.85.
For the variant FQRAMHDYNQAEMKQRDNFKIRIQ, the protein stability index is 1.85.
In the case of FQRAMHDYNQAEMKQRDNLKIRIQ, the protein stability index was 2.54.
Regarding FQRAMHDYNQAEMKQRDNPKIRIQ, the protein stability index was determined as 3.71.
FQRAMHDYNQAEMKQRDNEKIRIQ: the protein stability index amounted to 3.06.
On to FQRAMHDYNQAEMKQRDNVKIRIQ, for which the protein stability index was 2.96.
For the variant FQRAMHDYNQAEMKQKDNCKIRIQ, the protein stability index was found to be 2.81.
With FQRAMHDYNQAEMKQNDNCKIRIQ the figure was 2.7; with FQRAMHDYNQAEMKQIDNCKIRIQ, 2.34.
For FQRAMHDYNQAEMKQFDNCKIRIQ, the protein stability index came out at 2.28.
Take FQRAMHDYNQAEMKQLDNCKIRIQ: the protein stability index is 3.07.
On to FQRAMHDYNQAEMKQVDNCKIRIQ, for which the protein stability index is 2.63.
Take FQRAMHDYNQAEMKQYDNCKIRIQ: the protein stability index was 2.65.
For FQRAMHDYNQAEMKQCDNCKIRIQ, the protein stability index was 2.48.
Consider FQRAMHDYNQAEMKQTDNCKIRIQ, for which the protein stability index turned out to be 2.67.
With FQRAMHDYNQAEMKQHDNCKIRIQ the figure was 2.73; with FQRAMHDYNQAEMKQQDNCKIRIQ, 3.29; with FQRAMHDYNQAEMKQWDNCKIRIQ, 2.43.
Regarding FQRAMHDYNQAEMKQEDNCKIRIQ, the protein stability index was 3.04.
For FQRAMHDYNQAEMKQDDNCKIRIQ, the protein stability index was determined as 3.28.
In the case of FQRAMHDYNQAEMKQADNCKIRIQ, the protein stability index was found to be 3.04.
Consider FQRAMHDYNQAEMKQGDNCKIRIQ, for which the protein stability index is 3.37.
Consider FQRAMHDYNQAEMKQMDNCKIRIQ, for which the protein stability index came out at 2.46.
With FQRAMHDYNQAEMKQSDNCKIRIQ the figure was 2.41.
Regarding FQRAMHDYNQAEMKQPDNCKIRIQ, the protein stability index turned out to be 2.87.
With FQRAMHDYNQAEMKQRKNCKIRIQ, the protein stability index was 1.98.
With FQRAMHDYNQAEMKQRQNCKIRIQ the figure was 2.63; with FQRAMHDYNQAEMKQRINCKIRIQ, 1.8; with FQRAMHDYNQAEMKQRFNCKIRIQ, 1.16.
Consider FQRAMHDYNQAEMKQRHNCKIRIQ, for which the protein stability index turned out to be 2.15.
For the variant FQRAMHDYNQAEMKQRRNCKIRIQ, the protein stability index came to 1.82.
In the case of FQRAMHDYNQAEMKQRYNCKIRIQ, the protein stability index was 1.89.
Turning to FQRAMHDYNQAEMKQRVNCKIRIQ, the protein stability index turned out to be 2.73.
As to FQRAMHDYNQAEMKQRWNCKIRIQ, the protein stability index is 1.68.
With FQRAMHDYNQAEMKQRNNCKIRIQ, the protein stability index is 2.28.
For FQRAMHDYNQAEMKQRLNCKIRIQ, the protein stability index worked out at 2.1.
In the case of FQRAMHDYNQAEMKQRMNCKIRIQ, the protein stability index came to 2.
Take FQRAMHDYNQAEMKQRSNCKIRIQ: the protein stability index was found to be 1.78.
With FQRAMHDYNQAEMKQRCNCKIRIQ the figure was 2.09.
Turning to FQRAMHDYNQAEMKQRANCKIRIQ, the protein stability index came out at 2.28.
With FQRAMHDYNQAEMKQRGNCKIRIQ the figure was 2.36; with FQRAMHDYNQAEMKQRPNCKIRIQ, 2.97.
As for FQRAMHDYNQAEMKQRENCKIRIQ, the protein stability index is 2.81.
